Data as given in patent US12385058B2, “Herbicide tolerance protein, encoding gene thereof and use thereof” (Beijing Dabeinong Biotechnology Co., Ltd., priority 2018, dated 2025).
Substitutions are numbered along the chain they refer to.

B1: ALT01M1: herbicide tolerant protein, SEQ ID NO: 7; ALT01 with glycine to alanine at position 176 (protein)
chain: METDKKTGTSRRSFVKAAGTGAIGIATLPLSTATAFAETDNVELAQSKRKVVLAEQGSFYIGGRTVTGPGKFDPSKPVIPYSNEGATFYINQMYVNFQAPVRPRGLPLVFWHGGGLTGHIWESTPDGRPGFQTLFVQDRHTVYTIDQPGRGRGNIPTFNGPFGQLEEESIVNTVTANSSKEGAWVRDRLGPAPGQFFENSQFPRGYEDNYFKEMGFSPSISSDEIVDAVVKLVTHIGPCVLVTHSASGVLGMRVATHAKNVRGIVAYEPATSIFPKGKVPEIPPLADKKSQIFPPFEIQESYFKKLAKIPIQFVFGDNIPKNPKSAYWFLDWWRVTRYAHSLSLEAINKLGGQASLLDLPTAGLRGNTHFPFTDRNNVQVASLLSDFLGKHGLDQNES
modifications: the amino acid sequence of the herbicide tolerant protein ALT01M1
B2: ALT01M2: herbicide tolerant protein, SEQ ID NO: 11; ALT01 with serine to valine at position 178 (protein)
chain: B1 chain with A176G, S178V
modifications: the amino acid sequence of the herbicide tolerant protein ALT01M2
B3: ALT01M3: herbicide tolerant protein, SEQ ID NO: 15; ALT01 mutated at positions 80, 81, 176, 178 and 182 (protein)
chain: B1 chain with P80R, Y81A, S178V, G182R
modifications: the amino acid sequence of the herbicide tolerant protein ALT01M3
B4: ALT02M1: herbicide tolerant protein, SEQ ID NO: 23; ALT02 with glycine to alanine at position 140 (protein)
chain: METDNVELAQSKRKVVLAEQGSFYIGGRTVTGPGKFDPSKPVIPYSNEGATFYINQMYVNFQAPVRPRGLPLVFWHGGGLTGHIWESTPDGRPGFQTLFVQDRHTVYTIDQPGRGRGNIPTFNGPFGQLEEESIVNTVTANSSKEGAWVRDRLGPAPGQFFENSQFPRGYEDNYFKEMGFSPSISSDEIVDAVVKLVTHIGPCVLVTHSASGVLGMRVATHAKNVRGIVAYEPATSIFPKGKVPEIPPLADKKSQIFPPFEIQESYFKKLAKIPIQFVFGDNIPKNPKSAYWFLDWWRVTRYAHSLSLEAINKLGGQASLLDLPTAGLRGNTHFPFTDRNNVQVASLLSDFLGKHGLDQNESKLAAALE
modifications: the amino acid sequence of ALT02M1
B5: ALT02M2: herbicide tolerant protein, SEQ ID NO: 27; ALT02 with serine to valine at position 142 (protein)
chain: B4 chain with A140G, S142V
modifications: the amino acid sequence of the ALT02M2
B6: ALT02M3: herbicide tolerant protein, SEQ ID NO: 31; ALT02 mutated at positions 44, 45, 140, 142 and 146 (protein)
chain: B4 chain with P44R, Y45A, S142V, G146R
modifications: the amino acid sequence of the ALT02M3
B7: ALT03M1: herbicide tolerant protein, SEQ ID NO: 39; ALT03 with glycine to alanine at position 140 (protein)
chain: METDNVELAQSKRKVVLAEQGSFYIGGRTVTGPGKFDPSKPVIPYSNEGATFYINQMYVNFQAPVRPRGLPLVFWHGGGLTGHIWESTPDGRPGFQTLFVQDRHTVYTIDQPGRGRGNIPTFNGPFGQLEEESIVNTVTANSSKEGAWVRDRLGPAPGQFFENSQFPRGYEDNYFKEMGFSPSISSDEIVDAVVKLVTHIGPCVLVTHSASGVLGMRVATHAKNVRGIVAYEPATSIFPKGKVPEIPPLADKKSQIFPPFEIQESYFKKLAKIPIQFVFGDNIPKNPKSAYWFLDWWRVTRYAHSLSLEAINKLGGQASLLDLPTAGLRGNTHFPFTDRNNVQVASLLSDFLGKHGLDQNES
modifications: the amino acid sequence of the ALT03M1
B8: ALT03M2: herbicide tolerant protein, SEQ ID NO: 43; ALT03 with serine to valine at position 142 (protein)
chain: B7 chain with A140G, S142V
modifications: the amino acid sequence of the ALT03M2
B9: ALT03M3: herbicide tolerant protein, SEQ ID NO: 47; ALT03 mutated at positions 44, 45, 140, 142 and 146 (protein)
chain: B7 chain with P44R, Y45A, S142V, G146R
modifications: The amino acid sequence of the ALT03M3

Test: Degradation of sulfometuron-methyl by purified herbicide tolerant proteins (enzymatic activity, HPLC)
Format: biochemical
Conditions: 0.2 μg enzyme, 0.2 mM substrate, pH 7.0, 30° C., 20 min
Experimental: (§1) Each reaction was timed beginning with the addition of reactive enzyme, and was terminated with 1 mL of dichloromethane. The organic phase after delamination was dehydrated with anhydrous sodium sulfate.
(§2) The above dehydrated reaction solution was blown dry with nitrogen and filtered by adding 1 mL of methanol, and 20 μL of the filtrate was subjected to liquid chromatography-mass spectrometry (LC-MS). High performance liquid chromatography (HPLC) conditions were as follows: mobile phase being methanol:water (80:20, V/V), Zorbax XDB-C18 chromatographic column (3.5 μm, 2.1×50 mm, Agilent, USA), column temperature being room temperature, UV detector, with a detection wavelength of 255 nm, a sample injection volume of 20 μL, and a flow rate of 0.25 mL/min. The primary ion mass spectrometry conditions were as follows: ion detection mode being multi-reactive ion detection; ion polarity being negative ion; ionization mode being electrospray ionization; a capillary voltage of 4000 volts; a dry gas temperature of 330° C., a flow rate of 10 L/min, an atomizing gas pressure of 35 psi, a collision voltage of 135 volts; and a mass scan range of 300-500 m/z. The secondary ion mass spectrometry conditions were as follows: a collision voltage of 90 volts; a mass scanning range of 30-400 m/z, and other conditions being the same as those of the primary ion mass spectrometry. It was identified by LC-MS that the metabolite of thifensulfuron-methyl was thiophene sulfonic acid, and the metabolite of metsulfuron-methyl, chlorimuron-ethyl, bensulfuron-methyl, sulfometuron-methyl or tribenuron-methyl was its corresponding sulfonic acid. The amount of the generated thiophene sulfonic acid (metabolite) was detected using high performance liquid chromatography (HPLC).

Molecule	specific enzyme activity, sulfometuron-methyl
B1	5.4 µmol/min/mg
B2	3.5 µmol/min/mg
B3	1.1 µmol/min/mg
B4	5.7 µmol/min/mg
B5	3.7 µmol/min/mg
B6	1.2 µmol/min/mg
B7	5.1 µmol/min/mg
B8	3.3 µmol/min/mg
B9	1.0 µmol/min/mg

Test: not given
Format: biochemical
Conditions: not given
Experimental: as §1, §2

Molecule	efficiency of degrading bensulfuron-methyl, fold of ALT01	efficiency of degrading thifensulfuron-methyl, fold of ALT01	efficiency of degrading chlorimuron-ethyl, fold of ALT01	efficiency of degrading metsulfuron-methyl, fold of ALT01	efficiency of degrading bensulfuron-methyl, fold of ALT02	efficiency of degrading thifensulfuron-methyl, fold of ALT02	efficiency of degrading chlorimuron-ethyl, fold of ALT02	efficiency of degrading metsulfuron-methyl, fold of ALT02	efficiency of degrading bensulfuron-methyl, fold of ALT03	efficiency of degrading thifensulfuron-methyl, fold of ALT03
B1	2.3 fold	3.3 fold	–	–	–	–	–	–	–	–
B2	1.4 fold	3.9 fold	–	–	–	–	–	–	–	–
B3	–	–	14.2 fold	2.1 fold	–	–	–	–	–	–
B4	–	–	–	–	2.3 fold	3.3 fold	–	–	–	–
B5	–	–	–	–	1.4 fold	3.9 fold	–	–	–	–
B6	–	–	–	–	–	–	14.2 fold	2.1 fold	–	–
B7	–	–	–	–	–	–	–	–	2.1 fold	3.0 fold
B8	–	–	–	–	–	–	–	–	1.3 fold	3.5 fold

Same assay, conditions: not given

Molecule	efficiency of degrading chlorimuron-ethyl, fold of ALT03	efficiency of degrading chlorimuron-ethyl, fold of ALT04	efficiency of degrading metsulfuron-methyl, fold of ALT03	efficiency of degrading metsulfuron-methyl, fold of ALT04
B9	13.0 fold	12.4 fold	1.9 fold	1.8 fold

Same assay, conditions: 0.2 μg enzyme, 0.2 mM substrate, pH 7.0, 30° C., 20 min

Molecule	specific enzyme activity, bensulfuron-methyl	specific enzyme activity, chlorimuron-ethyl	specific enzyme activity, metsulfuron-methyl	specific enzyme activity, thifensulfuron-methyl	specific enzyme activity, tribenuron-methyl
B1	3.9 µmol/min/mg	10.4 µmol/min/mg	2.2 µmol/min/mg	89.9 µmol/min/mg	3.1 µmol/min/mg
B2	2.4 µmol/min/mg	9.0 µmol/min/mg	1.2 µmol/min/mg	106.0 µmol/min/mg	10.8 µmol/min/mg
B3	0.68 µmol/min/mg	38.4 µmol/min/mg	4.2 µmol/min/mg	17.8 µmol/min/mg	3.3 µmol/min/mg
B4	4.1 µmol/min/mg	10.9 µmol/min/mg	2.3 µmol/min/mg	94.4 µmol/min/mg	3.3 µmol/min/mg
B5	2.5 µmol/min/mg	9.5 µmol/min/mg	1.3 µmol/min/mg	111.3 µmol/min/mg	11.3 µmol/min/mg
B6	0.7 µmol/min/mg	40.3 µmol/min/mg	4.4 µmol/min/mg	18.7 µmol/min/mg	3.5 µmol/min/mg
B7	3.7 µmol/min/mg	9.9 µmol/min/mg	2.1 µmol/min/mg	85.4 µmol/min/mg	2.9 µmol/min/mg
B8	2.3 µmol/min/mg	8.6 µmol/min/mg	1.1 µmol/min/mg	100.7 µmol/min/mg	10.3 µmol/min/mg
B9	0.6 µmol/min/mg	36.5 µmol/min/mg	4.0 µmol/min/mg	16.9 µmol/min/mg	3.1 µmol/min/mg
